In patent US20240018252A1 (Pfizer, published 2024):

T1: human BCMA (human, UniProt Q02223 1-54)
T1 construct: also called huBCMA; hBCMA
T1 sequence: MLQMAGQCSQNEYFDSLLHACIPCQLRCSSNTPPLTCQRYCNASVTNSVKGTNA


Experiments:
cyBCMA [1] = target: T2, cyBCMA (cynomolgus, UniProt A0A2K5UD97 1-53); experiment: SPR, immobilised IgG, 25° C
T2 construct: Soluble analyte in SPR; construct not described; also called cyno BCMA

human BCMA [2] = target: T1, human BCMA; experiment: SPR, immobilised IgG, 25° C
cyBCMA [3] = target: T2, cyBCMA; experiment: SPR, immobilised IgG, 37° C
human BCMA [4] = target: T1, human BCMA; experiment: SPR, immobilised IgG, 37° C

T2 sequence (A0A2K5UD97 entry or part of it): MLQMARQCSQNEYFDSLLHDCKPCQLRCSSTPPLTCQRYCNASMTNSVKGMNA

Binder	T½ (cyBCMA [1])	T½ (human BCMA [2])	T½ (cyBCMA [3])	T½ (human BCMA [4])
L1.GDF/L3.KW/H3.AL (antibody, V domains shown, IgG in the assay) VH: EVQLLESGGGLVQPGGSLRLSCAASGFTFGSYAMTWVRQAPGKGLEWVSAISGSGGNTFYADSVKGRFTISRDNSKNTLYLQMNSLRAEDTAVYYCARVSPIAALMDYWGQGTLVTVSS VL: EIVLTQSPGTLSLSPGERATLSCRASQSVGDFYLAWYQQKPGQAPRLLIYGASSRATGIPDRFSGSGSGTDFTLTISRLEPEDFAVYYCKHYGWPPSFTFGQGTKVEIK	0.6 min	2.96 min		
L1.GDF/L3.KW/H3.AP (antibody, V domains shown, IgG in the assay) VH: EVQLLESGGGLVQPGGSLRLSCAASGFTFGSYAMTWVRQAPGKGLEWVSAISGSGGNTFYADSVKGRFTISRDNSKNTLYLQMNSLRAEDTAVYYCARVSPIAAPMDYWGQGTLVTVSS VL: EIVLTQSPGTLSLSPGERATLSCRASQSVGDFYLAWYQQKPGQAPRLLIYGASSRATGIPDRFSGSGSGTDFTLTISRLEPEDFAVYYCKHYGWPPSFTFGQGTKVEIK	0.6 min	2.51 min		
L1.GDF/L3.KW/H3.AQ (antibody, V domains shown, IgG in the assay) VH: EVQLLESGGGLVQPGGSLRLSCAASGFTFGSYAMTWVRQAPGKGLEWVSAISGSGGNTFYADSVKGRFTISRDNSKNTLYLQMNSLRAEDTAVYYCARVSPIAAQMDYWGQGTLVTVSS VL: EIVLTQSPGTLSLSPGERATLSCRASQSVGDFYLAWYQQKPGQAPRLLIYGASSRATGIPDRFSGSGSGTDFTLTISRLEPEDFAVYYCKHYGWPPSFTFGQGTKVEIK	2 min	3.32 min		
L1.GDF/L3.NY/H3.AL (antibody, V domains shown, IgG in the assay) VH: EVQLLESGGGLVQPGGSLRLSCAASGFTFGSYAMTWVRQAPGKGLEWVSAISGSGGNTFYADSVKGRFTISRDNSKNTLYLQMNSLRAEDTAVYYCARVSPIAALMDYWGQGTLVTVSS VL: EIVLTQSPGTLSLSPGERATLSCRASQSVGDFYLAWYQQKPGQAPRLLIYGASSRATGIPDRFSGSGSGTDFTLTISRLEPEDFAVYYCQHYNYPPSFTFGQGTKVEIK	0.5 min	2.87 min		
L1.GDF/L3.NY/H3.AP (antibody, V domains shown, IgG in the assay) VH: EVQLLESGGGLVQPGGSLRLSCAASGFTFGSYAMTWVRQAPGKGLEWVSAISGSGGNTFYADSVKGRFTISRDNSKNTLYLQMNSLRAEDTAVYYCARVSPIAAPMDYWGQGTLVTVSS VL: EIVLTQSPGTLSLSPGERATLSCRASQSVGDFYLAWYQQKPGQAPRLLIYGASSRATGIPDRFSGSGSGTDFTLTISRLEPEDFAVYYCQHYNYPPSFTFGQGTKVEIK	1.6 min	8.21 min		
L1.GDF/L3.NY/H3.AQ (antibody, V domains shown, IgG in the assay) VH: EVQLLESGGGLVQPGGSLRLSCAASGFTFGSYAMTWVRQAPGKGLEWVSAISGSGGNTFYADSVKGRFTISRDNSKNTLYLQMNSLRAEDTAVYYCARVSPIAAQMDYWGQGTLVTVSS VL: EIVLTQSPGTLSLSPGERATLSCRASQSVGDFYLAWYQQKPGQAPRLLIYGASSRATGIPDRFSGSGSGTDFTLTISRLEPEDFAVYYCQHYNYPPSFTFGQGTKVEIK	8.5 min	16 min		
L1.GDF/L3.NY/P6E01 (antibody, V domains shown, IgG in the assay) VH: EVQLLESGGGLVQPGGSLRLSCAASGFTFGSYAMTWVRQAPGKGLEWVSAISGSGGNTFYADSVKGRFTISRDNSKNTLYLQMNSLRAEDTAVYYCARVSPIASGMDYWGQGTLVTVSS VL: EIVLTQSPGTLSLSPGERATLSCRASQSVGDFYLAWYQQKPGQAPRLLIYGASSRATGIPDRFSGSGSGTDFTLTISRLEPEDFAVYYCQHYNYPPSFTFGQGTKVEIK	1.5 min	1.95 min		
L1.GDF/L3.PY/H3.AQ (antibody, V domains shown, IgG in the assay) VH: EVQLLESGGGLVQPGGSLRLSCAASGFTFGSYAMTWVRQAPGKGLEWVSAISGSGGNTFYADSVKGRFTISRDNSKNTLYLQMNSLRAEDTAVYYCARVSPIAAQMDYWGQGTLVTVSS VL: EIVLTQSPGTLSLSPGERATLSCRASQSVGDFYLAWYQQKPGQAPRLLIYGASSRATGIPDRFSGSGSGTDFTLTISRLEPEDFAVYYCQHYPYPPSFTFGQGTKVEIK	0.7 min	0.86 min		
L1.LGF/L3.KW/H3.AL (antibody, V domains shown, IgG in the assay) VH: EVQLLESGGGLVQPGGSLRLSCAASGFTFGSYAMTWVRQAPGKGLEWVSAISGSGGNTFYADSVKGRFTISRDNSKNTLYLQMNSLRAEDTAVYYCARVSPIAALMDYWGQGTLVTVSS VL: EIVLTQSPGTLSLSPGERATLSCRASQSLGSFYLAWYQQKPGQAPRLLIYGASSRATGIPDRFSGSGSGTDFTLTISRLEPEDFAVYYCKHYGWPPSFTFGQGTKVEIK	1 min	9.4 min		
L1.LGF/L3.KW/H3.AP (antibody, V domains shown, IgG in the assay) VH: EVQLLESGGGLVQPGGSLRLSCAASGFTFGSYAMTWVRQAPGKGLEWVSAISGSGGNTFYADSVKGRFTISRDNSKNTLYLQMNSLRAEDTAVYYCARVSPIAAPMDYWGQGTLVTVSS VL: EIVLTQSPGTLSLSPGERATLSCRASQSLGSFYLAWYQQKPGQAPRLLIYGASSRATGIPDRFSGSGSGTDFTLTISRLEPEDFAVYYCKHYGWPPSFTFGQGTKVEIK	0.7 min	5.1 min		
L1.LGF/L3.KW/H3.AQ (antibody, V domains shown, IgG in the assay) VH: EVQLLESGGGLVQPGGSLRLSCAASGFTFGSYAMTWVRQAPGKGLEWVSAISGSGGNTFYADSVKGRFTISRDNSKNTLYLQMNSLRAEDTAVYYCARVSPIAAQMDYWGQGTLVTVSS VL: EIVLTQSPGTLSLSPGERATLSCRASQSLGSFYLAWYQQKPGQAPRLLIYGASSRATGIPDRFSGSGSGTDFTLTISRLEPEDFAVYYCKHYGWPPSFTFGQGTKVEIK	3.3 min	12.1 min		
L1.LGF/L3.KW/P6E01 (antibody, V domains shown, IgG in the assay) VH: EVQLLESGGGLVQPGGSLRLSCAASGFTFGSYAMTWVRQAPGKGLEWVSAISGSGGNTFYADSVKGRFTISRDNSKNTLYLQMNSLRAEDTAVYYCARVSPIASGMDYWGQGTLVTVSS VL: EIVLTQSPGTLSLSPGERATLSCRASQSLGSFYLAWYQQKPGQAPRLLIYGASSRATGIPDRFSGSGSGTDFTLTISRLEPEDFAVYYCKHYGWPPSFTFGQGTKVEIK	0.6 min	1.53 min		
L1.LGF/L3.NY/H3.AL (antibody, V domains shown, IgG in the assay) VH: EVQLLESGGGLVQPGGSLRLSCAASGFTFGSYAMTWVRQAPGKGLEWVSAISGSGGNTFYADSVKGRFTISRDNSKNTLYLQMNSLRAEDTAVYYCARVSPIAALMDYWGQGTLVTVSS VL: EIVLTQSPGTLSLSPGERATLSCRASQSLGSFYLAWYQQKPGQAPRLLIYGASSRATGIPDRFSGSGSGTDFTLTISRLEPEDFAVYYCQHYNYPPSFTFGQGTKVEIK	0.8 min	11.9 min		
L1.LGF/L3.NY/H3.AP (antibody, V domains shown, IgG in the assay) VH: EVQLLESGGGLVQPGGSLRLSCAASGFTFGSYAMTWVRQAPGKGLEWVSAISGSGGNTFYADSVKGRFTISRDNSKNTLYLQMNSLRAEDTAVYYCARVSPIAAPMDYWGQGTLVTVSS VL: EIVLTQSPGTLSLSPGERATLSCRASQSLGSFYLAWYQQKPGQAPRLLIYGASSRATGIPDRFSGSGSGTDFTLTISRLEPEDFAVYYCQHYNYPPSFTFGQGTKVEIK	2.1 min	21.7 min		
L1.LGF/L3.NY/H3.AQ (antibody, V domains shown, IgG in the assay) VH: EVQLLESGGGLVQPGGSLRLSCAASGFTFGSYAMTWVRQAPGKGLEWVSAISGSGGNTFYADSVKGRFTISRDNSKNTLYLQMNSLRAEDTAVYYCARVSPIAAQMDYWGQGTLVTVSS VL: EIVLTQSPGTLSLSPGERATLSCRASQSLGSFYLAWYQQKPGQAPRLLIYGASSRATGIPDRFSGSGSGTDFTLTISRLEPEDFAVYYCQHYNYPPSFTFGQGTKVEIK	7.8 min	38.6 min		
L1.LGF/L3.NY/P6E01 (antibody, V domains shown, IgG in the assay) VH: EVQLLESGGGLVQPGGSLRLSCAASGFTFGSYAMTWVRQAPGKGLEWVSAISGSGGNTFYADSVKGRFTISRDNSKNTLYLQMNSLRAEDTAVYYCARVSPIASGMDYWGQGTLVTVSS VL: EIVLTQSPGTLSLSPGERATLSCRASQSLGSFYLAWYQQKPGQAPRLLIYGASSRATGIPDRFSGSGSGTDFTLTISRLEPEDFAVYYCQHYNYPPSFTFGQGTKVEIK	1.1 min	2.63 min		
L1.LGF/L3.PY/H3.AP (antibody, V domains shown, IgG in the assay) VH: EVQLLESGGGLVQPGGSLRLSCAASGFTFGSYAMTWVRQAPGKGLEWVSAISGSGGNTFYADSVKGRFTISRDNSKNTLYLQMNSLRAEDTAVYYCARVSPIAAPMDYWGQGTLVTVSS VL: EIVLTQSPGTLSLSPGERATLSCRASQSLGSFYLAWYQQKPGQAPRLLIYGASSRATGIPDRFSGSGSGTDFTLTISRLEPEDFAVYYCQHYPYPPSFTFGQGTKVEIK	0.9 min	11.9 min		
L1.LGF/L3.PY/H3.AQ (antibody, V domains shown, IgG in the assay) VH: EVQLLESGGGLVQPGGSLRLSCAASGFTFGSYAMTWVRQAPGKGLEWVSAISGSGGNTFYADSVKGRFTISRDNSKNTLYLQMNSLRAEDTAVYYCARVSPIAAQMDYWGQGTLVTVSS VL: EIVLTQSPGTLSLSPGERATLSCRASQSLGSFYLAWYQQKPGQAPRLLIYGASSRATGIPDRFSGSGSGTDFTLTISRLEPEDFAVYYCQHYPYPPSFTFGQGTKVEIK	2.4 min	13 min		
L3.PY/L3.KY/P6E01 (antibody, V domains shown, IgG in the assay) VH: EVQLLESGGGLVQPGGSLRLSCAASGFTFGSYAMTWVRQAPGKGLEWVSAISGSGGNTFYADSVKGRFTISRDNSKNTLYLQMNSLRAEDTAVYYCARVSPIASGMDYWGQGTLVTVSS VL: EIVLTQSPGTLSLSPGERATLSCRASQSVSSSYLAWYQQKPGQAPRLLIYGASSRATGIPDRFSGSGSGTDFTLTISRLEPEDFAVYYCKYYPYPPSFTFGQGTKVEIK			2.3 min	10.7 min
P6E01/H3.AQ (antibody, V domains shown, IgG in the assay) VH: EVQLLESGGGLVQPGGSLRLSCAASGFTFGSYAMTWVRQAPGKGLEWVSAISGSGGNTFYADSVKGRFTISRDNSKNTLYLQMNSLRAEDTAVYYCARVSPIAAQMDYWGQGTLVTVSS VL: not shown		33.5 min		
P6E01/P6E01 (antibody, V domains shown, IgG in the assay; also called P6E01_VHVL) VH: EVQLLESGGGLVQPGGSLRLSCAASGFTFGSYAMTWVRQAPGKGLEWVSAISGSGGNTFYADSVKGRFTISRDNSKNTLYLQMNSLRAEDTAVYYCARVSPIASGMDYWGQGTLVTVSS VL: not shown		2.8 min		
